Test results published in publication PMC6983858.
pKd: −log10 of the molar value.

Columns and labels:
[1] = biological target: full-length human neurofibromin (His6-tev-NF1, 2–2818) (human) (UniProt P21359); experiment: SAXS + SANS; full-length neurofibromin in solution, SAXS at 0.5 and 1.0 mg/ml, SANS at 1 mg/ml, 20 °C; molar mass from scattering
[2] = biological target: full-length human neurofibromin (His6-tev-NF1, 2–2818) (human) (UniProt P21359); experiment: SEC-MALS; single purified proteins; Superose-6 Increase or Superdex S-200 10/300 GL, Wyatt Heleos and Optilab T-Rex; BSA as standard
[3] = biological target: full-length human neurofibromin (His6-tev-NF1, 2–2818) (human) (UniProt P21359); experiment: AUC; sedimentation velocity and equilibrium of full-length neurofibromin, 1.2 μM to 25 nM, 20 °C, 20 mM HEPES pH 7.4, 300 mM NaCl, 1 mM TCEP; dimer to monomers

stoichiometry N [1]: 2 | stoichiometry N [2]: 2 | pKd [3]: > 9.00
Substance: full-length human neurofibromin (His6-tev-NF1, 2–2818), P21359-2 2-2818
